Measurements as given in patent US20250163223A1, “HYDROGEL INCLUSION COMPLEX INCLUDING PHYSIOLOGICALLY ACTIVE MATERIAL BOUND TO THERMOSENSITIVE POLY(PHOSPHAZENE) BY HOST-GUEST INTERACTION USING BETA-CYCLODEXTRIN AND USE THEREOF” (KOREA INSTITUTE OF SCIENCE AND TECHNOLOGY, priority 2019, published 2025).
Ends that are not written are not given here. PEG = not defined here

Experiment: Dynamic light scattering (DLS) particle size in aqueous environment
Assay type: physicochemical
Description: In this example, it was hypothesized that binding affinity between β-CD and Ad-RGD would induce the well-controlled guest molecule amount through the Ad-RGDs inserted at different amounts with one another. First of all, β-CD PPZ and β-CD PPZ+Ad-RGD gave different results from measurement of dynamic light scattering (DLS). […] As Ad-RGDs were included in β-CD PPZ, the practical size of aqueous particles of β-CD PPZ+Ad-RGD was increased.
Further, to identify whether Ad-peptides were stoichiometrically and accurately inserted into the host molecules, dynamic light scattering (DLS) measurement was performed by mixing host molecules and guest molecules such that the ratio of host molecule: guest molecule was 1:1, 1:1.2, and 0:1. […] In this DLS result of the conjugate in which the ratio of host molecule:guest molecule was 1:1, any peaks involved in guest molecules alone were not shown (C of FIG. 17). It means that there were no guest molecules separated from β-CD PPZ. […] This means that all of the Ad-peptides were incorporated into the conjugates of β-CD PPZ and Ad-peptide (host molecule:guest molecule=1:1) in the aqueous environment. On the other hand, it was confirmed that when Ad-peptides was excessively mixed with β-CD PPZ (host molecule: guest molecule=1:1.2), the surplus Ad-peptides formed their own other peaks analogous to those of Ad-TGF and Ad-HAV alone (FIG. 18). […]

| Substance | average particle size |
| --- | --- |
| adamantane-PEG-CESPLKRQ ({adamantane-PEG}-CESPLKRQ; reading uncertain) [Ad-TGF, TGF-β1 mimic peptide linked to adamantane via PEG] | 353.63±31.71 nm |
| adamantane-PEG-CLRAHAVDIN ({adamantane-PEG}-CLRAHAVDIN; not fully specified; reading uncertain) [Ad-HAV, N-cadherin mimic peptide linked to adamantane via PEG] | 460.78±49.53 nm |
